# Measurements: IntAct's records for PubMed 29892012
# B1: U3 small nucleolar RNA-associated protein 25 homolog (Homo sapiens), Q68CQ4 (parent)
# chain: MGKRGSRSQSQLLNTLTKKQKKHLRDFGEEHPFYDRVSRKEAKPQICQLSESSDSSDSESDSESEPQQVSGYHRLLATLKNVSEEEEEDEEEEEEEDSIVDDAEMNDEDGGSDVSVEEEMAAESTESPENVALSADPEGKEDGEEPPGTSQTSPEEFTDAKHESLFSLETNFLEEESGDNSSLKASQDPFLQHVNKELKEKAIQAVATNPKTTHELKWPILGQLFFSSKFQKLETFKPPKDIDLKSLHLQKPLESTWTKTNSQFLSGPQKSSSPFTPLQKELFLIMNSYRDLFYPERTALKNGEEIRHVYCLHVINHILKANAQVLGNNSRRRSQKFGVGDDDDFRDQGLTRPKVLIVVPFREAALRVVQLFISLLEGDSKKKIIVSNKKRFQGEYGSDPEERPPNLKRPEDYEAVFVGNIDDHFRIGVAILQRSIRLYAPFYSSDILIASPLGLRTIIGGEGEKKRDFDFLSSIELLIIDQADIYLMQNWEHVLHLMNHMNLLPLDSHGVDFSRVRMWSLNNWSKYYRQTLLFGALQDAQINSVFNKYCVNMQGQVAVRNVPMTGSISHVLVQLPHVFQRMEAENLASVIDARFNFFVNKILPQYRDAVMSHTLIYIPSYFDFVRLRNYFKKEELNFTHICEYTQKSGVSRARHFFLQGEKQFLLFTERFHFYKRYTIKGIRNLIFYELPTYPHFYSEICNMLRATNRGEEATWTCTVLYSKYDAQRLAAVVGVERAAQMLQSNKNVHLFITGEK
# partner: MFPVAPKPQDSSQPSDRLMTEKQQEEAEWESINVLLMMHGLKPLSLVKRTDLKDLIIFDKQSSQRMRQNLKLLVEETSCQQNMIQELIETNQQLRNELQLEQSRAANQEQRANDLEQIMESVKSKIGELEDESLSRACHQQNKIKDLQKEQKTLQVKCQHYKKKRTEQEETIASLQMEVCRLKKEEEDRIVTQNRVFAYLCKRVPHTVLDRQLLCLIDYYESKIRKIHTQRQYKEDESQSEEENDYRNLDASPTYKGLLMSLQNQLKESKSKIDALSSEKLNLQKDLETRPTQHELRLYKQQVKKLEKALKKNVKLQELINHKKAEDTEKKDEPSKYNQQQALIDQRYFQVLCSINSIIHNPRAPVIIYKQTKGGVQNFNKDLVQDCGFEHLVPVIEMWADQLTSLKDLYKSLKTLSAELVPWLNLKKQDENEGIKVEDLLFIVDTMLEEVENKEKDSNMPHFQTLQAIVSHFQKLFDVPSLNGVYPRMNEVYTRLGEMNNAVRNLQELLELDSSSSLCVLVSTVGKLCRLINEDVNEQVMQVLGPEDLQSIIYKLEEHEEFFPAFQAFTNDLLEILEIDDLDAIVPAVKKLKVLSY
# B2: Late cornified envelope protein 1B (Homo sapiens), Q5T7P3 (parent)
# chain: MSCQQNQQQCQPPPKCIPKCPPKCLTPRCPPKCPPKCPPVSSCCSVSSGGCCGSSSGGSCGSSSGGCCSSGGGGCCLSHHRRRRSHCHRPQSSGCCSQPSGGSSCCGGGSGQHSGGCC
# partner: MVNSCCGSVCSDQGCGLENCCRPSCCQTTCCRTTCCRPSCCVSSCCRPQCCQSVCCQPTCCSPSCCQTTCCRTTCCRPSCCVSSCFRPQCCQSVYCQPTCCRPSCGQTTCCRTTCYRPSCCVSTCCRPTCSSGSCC
# B3: U3 small nucleolar RNA-associated protein 25 homolog (Homo sapiens), Q68CQ4 (parent)
# chain: B1 chain
# B4: RNA-binding protein 3 (Homo sapiens), P98179 (parent)
# chain: MSSEEGKLFVGGLNFNTDEQALEDHFSSFGPISEVVVVKDRETQRSRGFGFITFTNPEHASVAMRAMNGESLDGRQIRVDHAGKSARGTRGGGFGAHGRGRSYSRGGGDQGYGSGRYYDSRPGGYGYGYGRSRDYNGRNQGGYDRYSGGNYRDNYDN
# partner: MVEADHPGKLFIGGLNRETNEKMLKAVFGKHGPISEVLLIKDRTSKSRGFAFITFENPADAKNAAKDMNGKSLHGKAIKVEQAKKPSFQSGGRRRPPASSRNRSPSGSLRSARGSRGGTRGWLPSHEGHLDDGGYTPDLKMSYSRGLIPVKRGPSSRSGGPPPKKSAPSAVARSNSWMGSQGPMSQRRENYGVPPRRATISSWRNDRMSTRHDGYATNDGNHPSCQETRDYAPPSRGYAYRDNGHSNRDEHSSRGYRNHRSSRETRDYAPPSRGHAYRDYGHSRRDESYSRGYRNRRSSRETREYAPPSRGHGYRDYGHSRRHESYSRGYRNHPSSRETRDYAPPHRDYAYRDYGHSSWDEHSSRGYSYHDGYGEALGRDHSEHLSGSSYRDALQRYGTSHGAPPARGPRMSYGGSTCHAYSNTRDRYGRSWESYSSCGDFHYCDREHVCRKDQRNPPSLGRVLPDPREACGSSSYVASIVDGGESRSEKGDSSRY
# B5: Pre-B-cell leukemia transcription factor-interacting protein 1 (Homo sapiens), Q96AQ6 (parent)
# chain: MASCPDSDNSWVLAGSESLPVETLGPASRMDPESERALQAPHSPSKTDGKELAGTMDGEGTLFQTESPQSGSILTEETEVKGTLEGDVCGVEPPGPGDTVVQGDLQETTVVTGLGPDTQDLEGQSPPQSLPSTPKAAWIREEGRCSSSDDDTDVDMEGLRRRRGREAGPPQPMVPLAVENQAGGEGAGGELGISLNMCLLGALVLLGLGVLLFSGGLSESETGPMEEVERQVLPDPEVLEAVGDRQDGLREQLQAPVPPDSVPSLQNMGLLLDKLAKENQDIRLLQAQLQAQKEELQSLMHQPKGLEEENAQLRGALQQGEAFQRALESELQQLRARLQGLEADCVRGPDGVCLSGGRGPQGDKAIREQGPREQEPELSFLKQKEQLEAEAQALRQELERQRRLLGSVQQDLERSLQDASRGDPAHAGLAELGHRLAQKLQGLENWGQDPGVSANASKAWHQKSHFQNSREWSGKEKWWDGQRDRKAEHWKHKKEESGRERKKNWGGQEDREPAGRWKEGRPRVEESGSKKEGKRQGPKEPPRKSGSFHSSGEKQKQPRWREGTKDSHDPLPSWAELLRPKYRAPQGCSGVDECARQEGLTFFGTELAPVRQQELASLLRTYLARLPWAGQLTKELPLSPAFFGEDGIFRHDRLRFRDFVDALEDSLEEVAVQQTGDDDEVDDFEDFIFSHFFGDKALKKRSGKKDKHSQSPRAAGPREGHSHSHHHHHRG
# B6: Consortin (Homo sapiens), Q6PJW8 (parent)
# chain: MDDSDTPTYYLQIEPQDGCHPGDSVERSVTCLPSASDENENQLDGDGHEHLTSSDSAMGKPQVSEQDSLNNNESCTLSCEVAAGENLQNTLCEASRDEQAFLGKDKKIPGKRSPRSKKGTAKKIPPGLFSGDIAPLMQEKVLSAVTYAVDDEEAAEVNANEQPEAPKLVLQSLFSLIRGEVEQLDSRALPLCLHQIAESYFQEEDYEKAMKFIQLERLYHEQLLANLSAIQEQWETKWKTVQPHTVTALRNSEKGFNGEDFERLTKICATHQDPLLSKHKIAAVEKSQERKCSTQLLVSEDPKEGGATTKESESKTCLGTESSKESQHTVEPLGSSPCCHQMDVQTDSPSLSVTAGKDHMEELLCSAEATLALHTQSSETAGSPSGPDSSEDACEDDSRLQLAQTEACQDVARIEGIAEDPKVFLSSKSKTEPLISPGCDRIPPALISEGKYSQAQRKELRLPLRDASEALPTDQLENNELNELQQPDLTDSDGKSPQAQADSDGSENVLCGNNQISDLGILLPEVCMAPEEKGDKDDQLNKETEDYLNSLLEGCLKDTEDSLSYEDNQDDDSDLLQDLSPEEASYSLQENLPSDESCLSLDDLAKRIEIAEVVPTEGLVSILKKRNDTVGDHPAQMQHKPSKRRVRFQEIDDSLDQDEVGGGSCILLVLLCIATVFLSVGGTALYCTFGDMESPVCTDFADNMDFYYTKLLQGVAELKHWIYLS
# B7: RNA-binding protein 3 (Homo sapiens), P98179 (parent)
# chain: B4 chain
# partner: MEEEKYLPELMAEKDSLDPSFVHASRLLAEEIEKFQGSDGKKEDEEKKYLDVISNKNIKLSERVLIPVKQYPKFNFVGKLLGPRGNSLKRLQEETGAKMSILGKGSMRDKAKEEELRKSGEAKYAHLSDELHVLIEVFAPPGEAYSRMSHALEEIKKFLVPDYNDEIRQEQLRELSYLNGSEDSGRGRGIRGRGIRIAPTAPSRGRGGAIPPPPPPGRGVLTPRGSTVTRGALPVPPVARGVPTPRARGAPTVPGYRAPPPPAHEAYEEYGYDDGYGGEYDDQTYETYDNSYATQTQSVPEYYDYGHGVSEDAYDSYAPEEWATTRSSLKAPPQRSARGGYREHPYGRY
# B8: Late cornified envelope protein 1B (Homo sapiens), Q5T7P3 (parent)
# chain: B2 chain
# partner: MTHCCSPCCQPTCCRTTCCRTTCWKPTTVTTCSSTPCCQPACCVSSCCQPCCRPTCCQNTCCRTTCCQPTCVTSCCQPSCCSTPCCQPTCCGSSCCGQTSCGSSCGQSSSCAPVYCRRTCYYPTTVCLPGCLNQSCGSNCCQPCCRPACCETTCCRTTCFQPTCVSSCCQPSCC
# Variants of: B1
# Details: with cep70_human CEP70, Q8NHQ1
row,Variant,effect of a mutation on the interaction
1,D399E,with no effect

# Variants of: B2
# Details: with kra42_human KRTAP4-2, Q9BYR5
row,Variant,effect of a mutation on the interaction
1,MSCQQNQQQCQPPPKYIPKCPPKCLTPRCPPKCPPKCPPVSSCCSVSSGGCCGSSSGGSCGSSSGGCCSSGGGGCCLSHHRRRRSHCHRPQSSGCCSQPSGGSSCCGGGSGQHSGGCC,with no effect

# Variants of: B3
# Details: with rufy1_human RUFY1, Q96T51
# Chain of rufy1_human RUFY1, Q96T51 (Q96T51 whole entry): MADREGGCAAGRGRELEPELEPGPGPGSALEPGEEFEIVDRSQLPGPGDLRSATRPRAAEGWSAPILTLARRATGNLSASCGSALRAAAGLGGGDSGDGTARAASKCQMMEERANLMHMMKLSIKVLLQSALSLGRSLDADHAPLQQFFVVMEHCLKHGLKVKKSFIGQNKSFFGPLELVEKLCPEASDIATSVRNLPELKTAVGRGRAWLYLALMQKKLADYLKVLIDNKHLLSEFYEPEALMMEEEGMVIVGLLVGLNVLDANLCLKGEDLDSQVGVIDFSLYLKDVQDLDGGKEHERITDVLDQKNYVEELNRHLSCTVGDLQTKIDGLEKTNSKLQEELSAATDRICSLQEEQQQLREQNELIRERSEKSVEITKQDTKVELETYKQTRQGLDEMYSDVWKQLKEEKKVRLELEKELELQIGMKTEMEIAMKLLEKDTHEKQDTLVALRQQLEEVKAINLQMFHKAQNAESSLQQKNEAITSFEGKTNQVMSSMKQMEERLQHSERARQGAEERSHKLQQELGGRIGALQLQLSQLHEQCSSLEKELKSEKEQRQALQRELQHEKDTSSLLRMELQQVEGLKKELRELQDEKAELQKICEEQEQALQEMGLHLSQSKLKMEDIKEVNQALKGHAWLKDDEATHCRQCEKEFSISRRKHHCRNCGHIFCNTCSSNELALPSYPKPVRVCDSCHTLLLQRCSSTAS
row,Variant,effect of a mutation on the interaction
1,D399E,with no effect

# Variants of: B4
# Details: with rby1a_human RBMY1A1, P0DJD3
row,Variant,effect of a mutation on the interaction
1,MSSEEGKLFVGGLNFNTDEQALEDHFSSFGPISEVVVVKDRETQRSRGFGFITFTNPEHASVAMRAMNGESLDGRQIRVDHAGKSARGTRGGGFGAHGRGRSYSRGGGDQGYGSGRYYDSRPGGYGYGYGRSRDYNGRNQGGYDHYSGGNYRDNYDN,with no effect

# Variants of: B5
# Details: with mdfi_human MDFI
row,Variant,effect of a mutation on the interaction
1,V238M,with no effect

# Variants of: B6
# Details: with rop1a_human ROPN1, Q9HAT0
# Chain of rop1a_human ROPN1, Q9HAT0 (Q9HAT0 whole entry): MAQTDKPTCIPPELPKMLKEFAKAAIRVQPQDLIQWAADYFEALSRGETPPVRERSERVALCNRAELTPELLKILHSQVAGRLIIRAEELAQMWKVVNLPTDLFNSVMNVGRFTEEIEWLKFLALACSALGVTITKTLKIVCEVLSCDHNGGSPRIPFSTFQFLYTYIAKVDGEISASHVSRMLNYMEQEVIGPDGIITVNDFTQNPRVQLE
row,Variant,effect of a mutation on the interaction
1,V25M,disrupting interaction strength

# Variants of: B7
# Details: with khdr2_human KHDRBS2, Q5VWX1
row,Variant,effect of a mutation on the interaction
1,MSSEEGKLFVGGLNFNTDEQALEDHFSSFGPISEVVVVKDRETQRSRGFGFITFTNPEHASVAMRAMNGESLDGRQIRVDHAGKSARGTRGGGFGAHGRGRSYSRGGGDQGYGSGRYYDSRPGGYGYGYGRSRDYNGRNQGGYDHYSGGNYRDNYDN,with no effect

# Variants of: B8
# Details: with kra92_human KRTAP9-2, Q9BYQ4
row,Variant,effect of a mutation on the interaction
1,MSCQQNQQQCQPPPKYIPKCPPKCLTPRCPPKCPPKCPPVSSCCSVSSGGCCGSSSGGSCGSSSGGCCSSGGGGCCLSHHRRRRSHCHRPQSSGCCSQPSGGSSCCGGGSGQHSGGCC,disrupting interaction strength
